Measurements from article doi:10.1101/2025.08.13.669967.

Assays:
[1] = molecular target: Artemia franciscana ferritin (Artemia franciscana); assay: native gel or EMSA
[2] = molecular target: Artemia franciscana ferritin (Artemia franciscana); assay: cryo-EM structure

Q: With “Artemia franciscana ferritin (natural protein)” as the substance, how does the stoichiometry N [1] read?
A: The stoichiometry N was 24.

Q: And the stoichiometry N [2]?
A: Its stoichiometry N is 24.
